From the nanobody polyreactivity screen of Harvey et al. (2022)

Assay: yeast display, Sf9 membrane polyspecificity reagent, FACS + sequencing; frameworks hold sequencing errors
Outline: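 Synthetic nanobody libraries on Saccharomyces cerevisiae BJ5465 were galactose-induced for 36–48 hours, stained 1 hour at 4 °C with 10% biotinylated, detergent-solubilized Sf9 membrane reagent and enriched on streptavidin microbeads. FACS then separated cells into low and high (top ~1%) gates by anti-HA (expression) and streptavidin (reagent binding) fluorescence. Genes were colony-PCR amplified, MiSeq 2 × 250 sequenced and CDR-length filtered. A clone's polyreactivity label is that of its gate of origin.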

For “QVQLLESGGGLVQAGGSLRLSCPPSGFIFPRNVMGWYRQAPGKERELVAAISRSGGSTYYADSVKGRYTISRDNAKNTVYLQLNSQKPEDTAVYYCAAEIPVYQGTGDYDYWGQGTQVTVSS”, which “polyreactivity (PSR sort gate)” value is on record?
Its value is “low polyreactivity”.

Which “polyreactivity (PSR sort gate)” value does the source give for “QFQLVESGGGLDQAGGSLRLSCAASGRIFYRNCMGWYSQAPWKDRELVASIRRGGSTNYADSVKGRFTISRDNAKYTVYLQMNSVKPEDTAVYYCAARRFYPYISSGPYYYWGQGTQVTVSS” here?
The value was “high polyreactivity”.

With “QVQLVESGGGLVQAGGSLRLSCAASGSINNRNAMGWYIQAPGKERELVAAITRRGGSTYYADSVKGRFTISRDNAKNTVYLQMNSLKPEETAVYYFNAVKGLSSWSYEYWGQGSQVTVSS” as the sequence, how does the “polyreactivity (PSR sort gate)” value read?
The value was “high polyreactivity”.

With “QVQLVESGGGLVQAGGSLRLSCAASGSIQYYAMGWYRQEPGKERELVAAIRFSGGRTYYADSVKGRFTISRDNAKNTVYLQMNSLKPEETAVYYCAAYRSPRRSGAPSQGKFDYWGQVTQVTVSS” as the sequence, how does the “polyreactivity (PSR sort gate)” value read?
Its value is “high polyreactivity”.

For “QVQLVESGGGLVQAGASLRLSCAPSGSIFLAYAMGWYRQAPGKEREFVAALSFTDGSTYYADSVKGRFTISRDNAKNTVYLQMNSLKPEDTAVYYCNKGASPDDYDYWGQGTQVTVSS”, which “polyreactivity (PSR sort gate)” value is on record?
The value was “low polyreactivity”.

For “QVQLVESGGGLVQAGGSLRLSCAASGFIFEKYTMGWYRQAPGKERELVAAITWNGGSTYYADSVKGRFTISRDNAKNTVYLQMNSLKPEDTAVYYCAARVGWNKRRYDYWGQGTQVTVSS”, which “polyreactivity (PSR sort gate)” value is on record?
Its value is “low polyreactivity”.

With “QVQLVESGGGLVQAGGSLRLSCAASGLTFRDNAMGWYRQAPGKERELVAAISTNGGSTYYADSVKGRFTISRDNAKNTVYLQMNSLKPEDTAVYYCAKSFLTQYPQVDSDYWGQGTQVTVSS” as the sequence, how does the “polyreactivity (PSR sort gate)” value read?
Its value is “low polyreactivity”.

For “QVQLVESGGGLVQAGGSLRLSCAASGFTFNWYAMAWYRQAPGKERELVATINSGGSTYYADSVKGRFTISRDNAKNTVYLQMISLKPEDTAVYYCNRTHRRRYVKSAYIYWGQGTQVTVSS”, which “polyreactivity (PSR sort gate)” value is on record?
The value was “low polyreactivity”.

With “QDQLVESGGGLVQAGGSLRLSCAASGFTFFPYAMGWYRQAPGKERELVAGINDGGSTNYADSVKGRFTISRDNAKNTVYLQLNSLKPEDTAVYYCNADTPLSGGSSMGYWGQGTQVTVSS” as the sequence, how does the “polyreactivity (PSR sort gate)” value read?
Its value is “low polyreactivity”.

For “QVQLVESGGGLVQAGGSLRLSCAASGSIIYTNAMGWYRQAPGKERELVAAITGTTTTNYADSVKGRFTISRDNAKNTVYLQKTSLKPEDTAVYYCNADYDRSRVYYSVELYDYWGQGTQVTVSS”, which “polyreactivity (PSR sort gate)” value is on record?
Its value is “low polyreactivity”.

With “QVQLVESGGGLVKAGGSLRLSCAASGFTFNKYAMGWYRQAPGKERESVAAISSSGGSTRYADSVKGRFTISRDNAKNTVYLQMNSLKPADTAVYYCAVYVTPDSGWWLYDYWGQGTHVTVSS” as the sequence, how does the “polyreactivity (PSR sort gate)” value read?
The value was “high polyreactivity”.

With “QVQLVESGGGLVQAGGSLRLSCAASGLTFYHYHMGWYRQAPGKERELVAAITIGGSTYYADSVKGRFTISRDNAKNTVYLQMNSLKPEDTEVYYCAAEPQRDSSGLDYWGQGTQVTVSS” as the sequence, how does the “polyreactivity (PSR sort gate)” value read?
The value was “low polyreactivity”.

Which “polyreactivity (PSR sort gate)” value does the source give for “QVQLVESGGGLVQAGGSLRLSCAASGRIFRLYAMGWYRQAPGKERELVAAIRVSGNTYYADSVKGRFTISRDNAKNTVYLQMNSLKPEDTAVYYCAAKPYYFYGMDYWGQGTQVTVSS” here?
The value was “high polyreactivity”.

For “QVQIVESGGGLVQAGGSLRLSCAASGFTFWRNAMVWYRQAPGKERELVAAINWSGGSTYYADSVKGRFTISRDNAKNTVYLQMNSLKPEDTAVYYCAADLSSRGISQDDYWGQGTQVTVSS”, which “polyreactivity (PSR sort gate)” value is on record?
The value was “high polyreactivity”.

Which “polyreactivity (PSR sort gate)” value does the source give for “QVQLVESGGGLVQAGGSLRLSCAASGSTFARYAMGWYRQAPGKERELFAVITWTGGSTYYADSVKGRFTISRDNAKNTVYLQMNSLKPEDTAVYYCAADFRYYVTALKYDYWGQGTQVTVSS” here?
The value was “low polyreactivity”.

For “QVQLVESGGGLVQAGGSLSLSCAATGSTLKFNAMGWYRQAPGKERELVAAINFSGGSTYYADSVKGRFTISRDNAKNTVYLQMNSLKPEDTAVYYCAAEASYYSRSVRWRYDYYYWGQGTQVTVSS”, which “polyreactivity (PSR sort gate)” value is on record?
Its value is “high polyreactivity”.

With “QVQLVESGGGLVQAGGSLRFSCAASGSTFYSYAMGWYRQAPGKERELVAGITGNDGSTYYADSVKGRFTISRDNAKNTVYLQMNSLKPEDTAVYYCNTDASPYLFDYWGQGTQVTVSS” as the sequence, how does the “polyreactivity (PSR sort gate)” value read?
The value was “low polyreactivity”.

For “QVQLVESGGGLVQAGGSLRLSCAASGFTFEKYAMGWYRQAPGKERELVAAISQSAGSTYADSVKGRFTISRDNAKNTVYLQMNSLKPEDTAVYYFAARYRYPYYARYGYWGQGTQVTVSS”, which “polyreactivity (PSR sort gate)” value is on record?
The value was “high polyreactivity”.

Which “polyreactivity (PSR sort gate)” value does the source give for “QVQLVESGGGLVQAGGSLRLTCAASGFTFGVYAMGWYRQAPGKERELVAAIDDGTNTYYADSVKGRFTISRDNAKNTVYLQMNSLKPEDTAVYYCNADDPYYIAEQSWSESDYWGQGTQVTVSS” here?
The value was “low polyreactivity”.

For “QVQLVESGGGLVQAGGSLRLSCAASGSIFYANAMGWYSQAPGKERELVAVISSGGGTYADSVKGRFTISRDNAKNTVYLQMNSLKPEDTAVYYCAADYTRESSMYYWGQGTQVTVSS”, which “polyreactivity (PSR sort gate)” value is on record?
Its value is “low polyreactivity”.

For “QVQLVESGGGLVHAGGSLRLSCAASGRTFKVYAMGWYRQAPGKERELVASISRSGGSTYYSDSVKGRFTISRDIAKNTVFLQRNSLKPEDTAVYYCAADFCFYGSRVWEYDYWGQGTQVTVSS”, which “polyreactivity (PSR sort gate)” value is on record?
The value was “high polyreactivity”.

For “QVQLVESGGGLVHAGGSLRLSCAASGITYQAYAMGWYRQAPGKEREMVAAINDSGSSTYYADSVKGRFTISRDNAKNTVYLQMNSLKPEDTAVYYCAAYLWFWGQGTQVTVSS”, which “polyreactivity (PSR sort gate)” value is on record?
The value was “low polyreactivity”.
